Patent publication US20210403514A1 (NATIONAL INSTITUTE FOR BIOTECHNOLOGY IN THE NEGEV, published 2021)

Tests used:
[1] = target: T1, soluble human c-FMS receptor (extracellular domains, residues Met1-Glu512) (Sino Biological) (human, UniProt P07333 20-512); test: SPR (ProteOn XPR36), M-CSF protein immobilised, c-FMS (Met1-Glu512) 4.375-70 nM as analyte, equilibrium, N=3
T1 construct: range 1-512; Analyte in both SPR experiments; The printed range starts at Met1, so it includes the signal peptide; also called human c-FMS soluble proteins
T1 sequence (P07333 20-512 limits assumed): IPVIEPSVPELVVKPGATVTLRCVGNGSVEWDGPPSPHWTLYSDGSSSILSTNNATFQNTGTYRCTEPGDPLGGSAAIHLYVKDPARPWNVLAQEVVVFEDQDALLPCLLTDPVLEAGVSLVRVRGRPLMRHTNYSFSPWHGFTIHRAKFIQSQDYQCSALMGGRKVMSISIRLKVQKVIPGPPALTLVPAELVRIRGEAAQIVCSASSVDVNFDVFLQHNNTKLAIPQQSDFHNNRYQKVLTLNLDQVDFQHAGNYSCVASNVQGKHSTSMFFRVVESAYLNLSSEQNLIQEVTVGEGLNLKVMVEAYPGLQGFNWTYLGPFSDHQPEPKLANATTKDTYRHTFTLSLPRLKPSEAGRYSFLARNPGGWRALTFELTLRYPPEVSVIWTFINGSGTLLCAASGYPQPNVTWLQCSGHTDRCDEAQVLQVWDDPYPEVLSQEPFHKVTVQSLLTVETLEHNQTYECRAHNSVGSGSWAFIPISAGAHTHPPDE

[2] = target: the molecule itself; test: SAXS, radius of gyration against protein concentration; oligomeric state (homodimer) in solution
[3] = target: T2, soluble Fc conjugated human c-FMS (R&D systems) (human, UniProt P07333 20-512); test: yeast surface display, flow cytometry; soluble c-FMS-Fc titrated from 0.5 to 2000 nM
T2 construct: Bought reagent; Used in all yeast display experiments; also called c-FMS-Fc; c-FMS-Fc recombinant protein; not shown: Fc (detected with goat anti human Fc)
T2 sequence (P07333 20-512 limits assumed): as above

[4] = target: T2, soluble Fc conjugated human c-FMS (R&D …); test: yeast surface display flow cytometry; displayed M-CSFM titrated with c-FMS-Fc (0.5 nM to 2000 nM); apparent KD
[5] = target: T1, soluble human c-FMS receptor …; test: SPR (ProteOn XPR36), M-CSF protein immobilised, c-FMS 0-200 nM as analyte, equilibrium
[6] = target: T3, murine c-FMS on bone marrow derived monocytes (BMMs) (mouse, UniProt P09581 20-977); test: cell-based or functional assay
T3 sequence (looked up): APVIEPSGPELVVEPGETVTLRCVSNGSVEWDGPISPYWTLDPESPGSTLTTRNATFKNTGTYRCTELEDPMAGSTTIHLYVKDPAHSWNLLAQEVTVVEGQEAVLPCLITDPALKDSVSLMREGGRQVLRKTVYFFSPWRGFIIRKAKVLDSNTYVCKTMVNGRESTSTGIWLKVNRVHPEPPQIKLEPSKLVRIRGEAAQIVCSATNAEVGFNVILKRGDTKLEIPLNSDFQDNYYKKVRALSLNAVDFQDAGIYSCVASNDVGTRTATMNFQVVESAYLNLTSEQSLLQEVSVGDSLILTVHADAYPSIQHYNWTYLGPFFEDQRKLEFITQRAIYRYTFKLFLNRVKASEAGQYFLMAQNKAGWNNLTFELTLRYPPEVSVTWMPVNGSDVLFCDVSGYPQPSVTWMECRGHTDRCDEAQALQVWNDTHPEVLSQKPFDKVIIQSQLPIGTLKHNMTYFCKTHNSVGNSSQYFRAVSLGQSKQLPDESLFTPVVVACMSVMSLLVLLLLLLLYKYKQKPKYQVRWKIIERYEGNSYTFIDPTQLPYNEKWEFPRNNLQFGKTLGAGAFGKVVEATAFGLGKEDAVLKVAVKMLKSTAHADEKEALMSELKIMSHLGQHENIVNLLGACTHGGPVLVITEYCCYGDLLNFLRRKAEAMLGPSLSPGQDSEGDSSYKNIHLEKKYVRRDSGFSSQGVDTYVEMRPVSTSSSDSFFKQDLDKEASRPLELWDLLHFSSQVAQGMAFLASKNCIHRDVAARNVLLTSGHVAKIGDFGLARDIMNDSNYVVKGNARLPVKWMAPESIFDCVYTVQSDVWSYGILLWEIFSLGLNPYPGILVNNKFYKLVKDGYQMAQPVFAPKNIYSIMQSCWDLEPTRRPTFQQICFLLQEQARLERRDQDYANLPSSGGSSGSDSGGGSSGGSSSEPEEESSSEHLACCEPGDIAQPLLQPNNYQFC

[7] = target: the molecule itself; test: BS3 chemical crosslinking, SDS-PAGE, InstantBlue stain; self-association (homodimer)
[8] = target: T4, soluble human αvβ3 integrin (human, UniProt P06756 31-992; P05106 27-718); test: SPR (ProteOn XPR36); variant immobilized by amine coupling, soluble αvβ3 integrin flowed at 12.5 to 200 nM; panel assigned to M-CSFM although the legend prints '9A and 9E'
T4 construct: R&D Systems for yeast display; also called integrin αvβ3; recombinant αvβ3 integrin

[9] = target: T1, soluble human c-FMS receptor …; test: SPR (ProteOn XPR36), M-CSF protein immobilised, c-FMS (Met1-Glu512) as analyte, equilibrium, N=3
[10] = target: T1, soluble human c-FMS receptor …; test: SPR (ProteOn XPR36), variant immobilised, c-FMS 0-200 nM as analyte, equilibrium
integrin α3β1 = target: T5, integrin α3β1 (human, UniProt P26006 33-991; P05556 21-728, limits assumed); test: SPR (ProteOn XPR36); α3β1 integrin immobilized, variant flowed at 1 µM
T5 construct: Immobilised on the SPR chip
T5 sequence (P26006 33-991 limits assumed, chain 1 of 2): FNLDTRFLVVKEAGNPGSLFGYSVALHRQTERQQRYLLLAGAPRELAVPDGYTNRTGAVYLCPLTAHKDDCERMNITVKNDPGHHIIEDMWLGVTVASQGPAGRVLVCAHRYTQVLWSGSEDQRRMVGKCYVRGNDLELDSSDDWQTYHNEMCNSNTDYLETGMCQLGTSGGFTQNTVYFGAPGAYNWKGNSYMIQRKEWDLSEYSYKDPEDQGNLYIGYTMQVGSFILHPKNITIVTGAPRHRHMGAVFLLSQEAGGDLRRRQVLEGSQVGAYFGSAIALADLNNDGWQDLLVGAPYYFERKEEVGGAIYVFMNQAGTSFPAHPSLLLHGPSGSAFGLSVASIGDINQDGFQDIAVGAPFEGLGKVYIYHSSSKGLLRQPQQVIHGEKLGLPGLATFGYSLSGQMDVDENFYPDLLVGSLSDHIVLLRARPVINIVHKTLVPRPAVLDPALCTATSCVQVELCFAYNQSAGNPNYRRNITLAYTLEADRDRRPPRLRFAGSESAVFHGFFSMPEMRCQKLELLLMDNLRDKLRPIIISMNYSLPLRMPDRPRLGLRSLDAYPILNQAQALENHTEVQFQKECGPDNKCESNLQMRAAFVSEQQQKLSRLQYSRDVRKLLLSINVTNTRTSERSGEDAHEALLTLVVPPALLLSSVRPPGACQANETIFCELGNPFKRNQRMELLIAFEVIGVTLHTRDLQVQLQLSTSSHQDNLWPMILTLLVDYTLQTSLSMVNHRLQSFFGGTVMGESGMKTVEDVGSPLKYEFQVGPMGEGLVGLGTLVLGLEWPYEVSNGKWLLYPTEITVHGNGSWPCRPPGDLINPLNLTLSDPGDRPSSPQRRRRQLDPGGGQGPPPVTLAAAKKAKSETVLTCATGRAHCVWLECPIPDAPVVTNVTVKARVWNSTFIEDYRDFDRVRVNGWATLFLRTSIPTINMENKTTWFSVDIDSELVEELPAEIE
T5 sequence (P05556 21-728 limits assumed, chain 2 of 2): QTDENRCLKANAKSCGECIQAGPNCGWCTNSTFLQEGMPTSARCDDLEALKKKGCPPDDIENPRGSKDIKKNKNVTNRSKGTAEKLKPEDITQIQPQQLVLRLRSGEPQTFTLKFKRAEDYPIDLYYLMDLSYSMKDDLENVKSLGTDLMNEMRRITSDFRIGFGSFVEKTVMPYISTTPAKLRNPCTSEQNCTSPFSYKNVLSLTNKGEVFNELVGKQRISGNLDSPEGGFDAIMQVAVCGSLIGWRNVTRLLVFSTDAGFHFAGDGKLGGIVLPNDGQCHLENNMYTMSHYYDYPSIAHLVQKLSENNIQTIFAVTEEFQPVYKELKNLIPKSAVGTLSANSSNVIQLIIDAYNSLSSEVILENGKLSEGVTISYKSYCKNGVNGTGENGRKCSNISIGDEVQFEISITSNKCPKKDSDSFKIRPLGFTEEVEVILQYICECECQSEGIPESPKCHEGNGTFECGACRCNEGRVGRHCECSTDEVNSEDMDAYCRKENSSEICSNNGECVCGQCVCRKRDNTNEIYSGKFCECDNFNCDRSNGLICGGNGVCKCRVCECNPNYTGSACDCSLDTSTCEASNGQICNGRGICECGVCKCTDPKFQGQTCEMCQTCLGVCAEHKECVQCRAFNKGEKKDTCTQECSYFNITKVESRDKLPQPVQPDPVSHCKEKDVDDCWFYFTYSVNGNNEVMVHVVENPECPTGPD

integrin α4β7 = target: T6, integrin α4β7 (human, UniProt P13612 34-977; P26010 20-723, limits assumed); test: SPR (ProteOn XPR36); α4β7 integrin immobilized, variant flowed at 1 µM
T6 construct: Immobilised on the SPR chip
T6 sequence (P13612 34-977 limits assumed, chain 1 of 2): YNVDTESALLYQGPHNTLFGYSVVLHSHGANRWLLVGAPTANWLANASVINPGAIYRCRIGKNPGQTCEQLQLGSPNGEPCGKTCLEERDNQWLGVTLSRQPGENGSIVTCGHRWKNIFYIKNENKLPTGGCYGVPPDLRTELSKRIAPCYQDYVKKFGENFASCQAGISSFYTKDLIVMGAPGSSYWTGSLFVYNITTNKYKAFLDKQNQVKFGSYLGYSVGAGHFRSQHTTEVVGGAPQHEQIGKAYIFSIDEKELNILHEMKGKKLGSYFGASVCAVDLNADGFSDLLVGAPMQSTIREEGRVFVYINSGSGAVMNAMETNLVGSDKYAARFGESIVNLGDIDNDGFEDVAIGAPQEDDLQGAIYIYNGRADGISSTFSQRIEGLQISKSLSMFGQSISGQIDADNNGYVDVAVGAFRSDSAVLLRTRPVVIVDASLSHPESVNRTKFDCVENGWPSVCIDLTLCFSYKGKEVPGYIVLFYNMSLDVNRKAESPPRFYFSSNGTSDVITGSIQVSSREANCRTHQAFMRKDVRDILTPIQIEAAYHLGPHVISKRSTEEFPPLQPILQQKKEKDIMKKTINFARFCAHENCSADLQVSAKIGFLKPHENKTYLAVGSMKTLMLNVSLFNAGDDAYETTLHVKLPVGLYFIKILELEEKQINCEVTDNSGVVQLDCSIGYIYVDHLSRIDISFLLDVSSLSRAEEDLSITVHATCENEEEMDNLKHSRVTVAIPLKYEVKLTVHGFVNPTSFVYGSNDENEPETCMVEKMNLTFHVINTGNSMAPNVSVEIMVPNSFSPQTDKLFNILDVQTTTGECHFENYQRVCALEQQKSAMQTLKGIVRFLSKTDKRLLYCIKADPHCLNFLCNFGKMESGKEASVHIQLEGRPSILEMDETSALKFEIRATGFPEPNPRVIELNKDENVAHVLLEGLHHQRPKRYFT
T6 sequence (P26010 20-723 limits assumed, chain 2 of 2): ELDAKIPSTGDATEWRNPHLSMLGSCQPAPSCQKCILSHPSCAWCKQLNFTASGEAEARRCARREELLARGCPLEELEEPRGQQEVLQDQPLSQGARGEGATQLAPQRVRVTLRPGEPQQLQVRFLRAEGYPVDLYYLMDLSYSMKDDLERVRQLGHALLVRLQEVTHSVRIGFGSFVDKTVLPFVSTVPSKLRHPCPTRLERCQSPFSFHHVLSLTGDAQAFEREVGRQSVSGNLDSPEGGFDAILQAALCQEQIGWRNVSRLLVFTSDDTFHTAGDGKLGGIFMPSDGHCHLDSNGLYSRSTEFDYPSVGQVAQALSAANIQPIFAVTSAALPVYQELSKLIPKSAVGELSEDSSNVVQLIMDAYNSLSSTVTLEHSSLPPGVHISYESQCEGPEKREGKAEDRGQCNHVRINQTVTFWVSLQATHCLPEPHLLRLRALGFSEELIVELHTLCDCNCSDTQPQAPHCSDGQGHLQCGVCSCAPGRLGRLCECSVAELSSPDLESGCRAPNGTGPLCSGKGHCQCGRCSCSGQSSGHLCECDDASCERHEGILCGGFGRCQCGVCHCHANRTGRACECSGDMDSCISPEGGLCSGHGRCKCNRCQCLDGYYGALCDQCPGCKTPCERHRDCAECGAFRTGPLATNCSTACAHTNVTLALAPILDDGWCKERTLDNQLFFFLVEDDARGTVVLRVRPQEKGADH

integrin α5β1 = target: T7, integrin α5β1 (human, UniProt P08648 42-995; P05556 21-728, limits assumed); test: SPR (ProteOn XPR36); α5β1 integrin immobilized, variant flowed at 1 µM
T7 construct: Immobilised on the SPR chip
T7 sequence (P08648 42-995 limits assumed, chain 1 of 2): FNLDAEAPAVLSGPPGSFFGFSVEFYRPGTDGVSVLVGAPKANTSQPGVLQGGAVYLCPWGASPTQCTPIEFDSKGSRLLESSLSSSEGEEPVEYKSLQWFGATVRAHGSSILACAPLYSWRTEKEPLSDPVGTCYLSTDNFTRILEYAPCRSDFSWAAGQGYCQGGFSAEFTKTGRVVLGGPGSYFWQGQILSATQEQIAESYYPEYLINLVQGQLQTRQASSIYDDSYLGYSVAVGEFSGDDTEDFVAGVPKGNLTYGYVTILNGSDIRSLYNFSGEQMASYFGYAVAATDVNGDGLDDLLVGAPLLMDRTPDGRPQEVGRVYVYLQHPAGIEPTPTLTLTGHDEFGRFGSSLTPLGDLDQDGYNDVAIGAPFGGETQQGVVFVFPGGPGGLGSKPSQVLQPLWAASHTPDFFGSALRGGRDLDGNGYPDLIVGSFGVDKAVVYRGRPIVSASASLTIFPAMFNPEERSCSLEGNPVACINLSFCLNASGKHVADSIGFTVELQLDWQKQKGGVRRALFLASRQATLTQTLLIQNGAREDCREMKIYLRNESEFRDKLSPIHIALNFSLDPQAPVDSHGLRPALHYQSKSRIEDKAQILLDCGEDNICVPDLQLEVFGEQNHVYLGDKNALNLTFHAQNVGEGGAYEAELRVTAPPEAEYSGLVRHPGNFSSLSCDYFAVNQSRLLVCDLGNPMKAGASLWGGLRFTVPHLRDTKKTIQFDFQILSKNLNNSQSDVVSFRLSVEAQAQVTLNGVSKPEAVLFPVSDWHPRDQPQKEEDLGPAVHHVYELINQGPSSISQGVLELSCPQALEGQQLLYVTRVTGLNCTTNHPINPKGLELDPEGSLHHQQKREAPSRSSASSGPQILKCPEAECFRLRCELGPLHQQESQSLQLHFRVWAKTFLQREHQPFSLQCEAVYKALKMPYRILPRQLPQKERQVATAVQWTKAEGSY
T7 sequence (P05556 21-728 limits assumed, chain 2 of 2): as the sequence (P05556 21-728 limits assumed, chain 2 of 2) above

[11] = target: T4, soluble human αvβ3 integrin; test: SPR (ProteOn XPR36), variant immobilised, αvβ3 integrin 0-200 nM as analyte, equilibrium
[12] = target: the molecule itself; test: BS3 chemical crosslinking, denaturing SDS-PAGE, Coomassie stain; self-association (homodimer)
[13] = target: T4, soluble human αvβ3 integrin; test: SPR (ProteOn XPR36), M-CSFαvβ3 immobilised, αvβ3 integrin 0-200 nM as analyte, equilibrium
[14] = target: the molecule itself; test: BS3 chemical crosslinking, denaturing SDS-PAGE, Coomassie stain; self-association (homodimer); remark: listed apart in the source

B1: human wild-type M-CSF (M-CSFWT) (ligand)
chain: EEVSEYCSHMIGSGHLQSLQRLIDSQMETSCQITFEFVDQEQLKDPVCYLKKAFLLVQDIMEDTMRFRDNTPNAIAIVQLQELSLRLKSCFTKDYEEHDKACVRTFYETPLQLLEKVKNVFNETKNLLDKDWNIFSKNCNNSFAECSSQGHERQSEGS
notes: also called human M-CSFWT
- Kd [1]: 25.1 nM
- binding result [2]: binds

B2: M-CSFM displayed on the yeast surface (YSD M-CSFM) (ligand)
chain: EEVSEYCSHMIGSGHLQSLQRLIDSQMETSSQITFEFVDQEQLKDPVCYLKKAFLLVQDIMEDTMRFRDNTPNAIAIVQLQELSLRLKSCFTKDYEEHDKACVRTFYETPLQLLEKVKNVFNETKNLLDKDWNIFSKNCNNSFAECSSQGHERQSEGS
notes: also called M-CSF monomer; not shown: yeast surface display fusion partner (pCTCON construct on the S. cerevisiae cell wall, with c-myc tag)
- EC50 (read off the curve) [3]: ~20 nM
- Kd [4]: 20 nM

B3: glycosylated M-CSFM, purified soluble (ligand)
chain: EEVSEYCSHMIGSGHLQSLQRLIDSQMETSSQITFEFVDQEQLKDPVCYLKKAFLLVQDIMEDTMRFRDNTPNAIAIVQLQELSLRLKSCFTKDYEEHDKACVRTFYETPLQLLEKVKNVFNETKNLLDKDWNIFSKNCNNSFAECSSQGHERQSEGS
modifications: N-glycosylated (two glycosylation sites in positions 122 and 140)
notes: Pichia pastoris product without Endo HF treatment; not shown: FLAG tag at the N-terminus of the cloning site (pPIC9K); 6xHis tag at the C-terminus of the cloning site
- Kd [5]: 42.6 nM

B4: M-CSFM, purified soluble, non-glycosylated (M-CSFC31S) (ligand)
chain: EEVSEYCSHMIGSGHLQSLQRLIDSQMETSSQITFEFVDQEQLKDPVCYLKKAFLLVQDIMEDTMRFRDNTPNAIAIVQLQELSLRLKSCFTKDYEEHDKACVRTFYETPLQLLEKVKNVFNETKNLLDKDWNIFSKNCNNSFAECSSQGHERQSEGS
modifications: N-glycans removed with Endo HF (non-glycosylated)
notes: Expressed in Pichia pastoris GS115; Forms non-covalent dimers; also called non-glycosylated M-CSFM; M-CSF monomer; not shown: FLAG tag at the N-terminus of the cloning site (pPIC9K); 6xHis tag at the C-terminus of the cloning site
- c-FMS phosphorylation at the peak concentration, fold against M-CSFWT [6]: 10 fold
- c-FMS phosphorylation at the peak concentration, fold against the positive control (0.5 nM murine M-CSF) [6]: 40 fold
- Kd [5]: 31.6 nM
- binding result [7]: binds
- binding result [8]: no binding (tested: 200 nM)

B5: M-CSFC31S,M27R (designed binder)
chain: EEVSEYCSHMIGSGHLQSLQRLIDSQRETSSQITFEFVDQEQLKDPVCYLKKAFLLVQDIMEDTMRFRDNTPNAIAIVQLQELSLRLKSCFTKDYEEHDKACVRTFYETPLQLLEKVKNVFNETKNLLDKDWNIFSKNCNNSFAECSSQGHERQSEGS
notes: monomer; Purified from Pichia pastoris GS115; also called M-CSFM,M27R; M-CSF double mutant
- Kd [9]: 61.5 nM
- binding result [7]: no binding

B6: M-CSFRGD variant 4.22, purified soluble, non-glycosylated (designed binder)
chain: EEVSEYCSHMIGSGHLQSLQRLIDQTSRGDSPSITFEFVDQEQLKDPVCYLKKAFLLVQDIMEDTMRFRDNTPNAIAIVQLQELSLRLKSCFTKDYEEHDKACVRTFYETPLQLLEKVKNVFNETKNLLDKDWNIFSKNCNNSFAECSSQGHERQSEGS
modifications: N-glycans removed with Endo HF (non-glycosylated). Labelled with DyLight 488 NHS ester on amines for the cell binding assays. Amine-coupled to the chip for SPR.
notes: Pichia pastoris product; 21.7 kDa by MS; not shown: N-terminal FLAG tag, C-terminal 6xHis tag and the vector junction residues (pPIC9K cloning site)
- Kd [10]: 152 nM
- binding result (integrin α3β1): no binding (tested: 1 µM)
- binding result (integrin α4β7): no binding (tested: 1 µM)
- binding result (integrin α5β1): no binding (tested: 1 µM)
- Kd [11]: 199 nM
- binding result [12]: no binding

B7: M-CSFαvβ3 (variant 4.22 with histidine to alanine in positions 9 and 15), purified soluble (designed binder, not shown: small tags and cut ends)
chain: EEVSEYCSAMIGSGALQSLQRLIDQTSRGDSPSITFEFVDQEQLKDPVCYLKKAFLLVQDIMEDTMRFRDNTPNAIAIVQLQELSLRLKSCFTKDYEEHDKACVRTFYETPLQLLEKVKNVFNETKNLLDKDWNIFSKNCNNSFAECSSQGHERQSEGS
modifications: Expressed in Pichia with an N-terminal FLAG tag and a C-terminal 6xHis tag, neither of which is in the letters. N-glycans were removed with Endo HF.
- Kd [13]: 231 nM

B8: M-CSFRGD variant 5.6, purified soluble, non-glycosylated (designed binder)
chain: EEVSEYCSHMIGSGHLQSLQRLIDTYPRGDMCSITFEFVDQEQLKDPVCYLKKAFLLVQDIMEDTMRFRDNTPNAIAIVQLQELSLRLKSCFTKDYEEHDKACVRTFYETPLQLLEKVKNVFNETKNLLDKDWNIFSKNCNNSFAECSSQGHERQSEGS
modifications: N-glycans removed with Endo HF (non-glycosylated). Labelled with DyLight 488 NHS ester on amines for the cell binding assays. Amine-coupled to the chip for SPR.
notes: Pichia pastoris product; 22 kDa by MS; also called M-CSFRGD 5.6; M-CSF5.6; not shown: N-terminal FLAG tag, C-terminal 6xHis tag and the vector junction residues (pPIC9K cloning site)
- Kd [10]: 96 nM
- binding result (integrin α3β1): no binding (tested: 1 µM)
- binding result (integrin α4β7): no binding (tested: 1 µM)
- binding result (integrin α5β1): no binding (tested: 1 µM)
- Kd [11]: 245 nM
- binding result [14]: no binding

B9: M-CSFRGD variant 4.24, purified soluble, non-glycosylated (designed binder)
chain: EEVSEYCSHMIGSGHLQSLQRLIDSQMETSSQITFEFVDQEQLKDPVCYLKKAFLLVQDIMEDEPVRGDNINPNAIAIVQLQELSLRLKSCFTKDYEEHDKACVRTFYETPLQLLEKVKNVFNETKNLLDKDWNIFSKNCNNSFAECSSQGHERQSEGS
modifications: N-glycans removed with Endo HF (non-glycosylated)
notes: not shown: FLAG tag at the N-terminus of the cloning site (pPIC9K); 6xHis tag at the C-terminus of the cloning site
- Kd [10]: 219 nM
- binding result (integrin α3β1): no binding (tested: 1 µM)
- binding result (integrin α4β7): no binding (tested: 1 µM)
- binding result (integrin α5β1): no binding (tested: 1 µM)
- Kd [11]: 108 nM
- binding result [14]: no binding
